Results reported in paper PMC3229523, “Identification of Lactoferricin B Intracellular Targets Using an Escherichia coli Proteome Chip” (PLoS ONE, 2011).
Ends that are not written are not given here. * marks the point of attachment. Biotin = O=C1N[C@H]2[C@H](CS[C@H]2CCCCC(=O)*)N1

What was measured:
Assay in all cases: peptide or protein array; E. coli proteome chip: purified His-tagged proteins printed in duplicate on Fullmoon slides, blocked with 1% BSA; 10 nM N-terminal biotinylated LfcinB with 1% BSA, room temperature, 1 h; detected with DyLight 649-labeled streptavidin, ratio to DyLight 549-labeled anti-His antibody; ProCAT normalisation, local cut-off; triplicate chips
Details in all cases: both partners purified
ThiF = target: T1, ThiF (E. coli K-12, UniProt P30138 1-251)
T1 construct: ThiF, E. coli K-12
T1 sequence (looked up): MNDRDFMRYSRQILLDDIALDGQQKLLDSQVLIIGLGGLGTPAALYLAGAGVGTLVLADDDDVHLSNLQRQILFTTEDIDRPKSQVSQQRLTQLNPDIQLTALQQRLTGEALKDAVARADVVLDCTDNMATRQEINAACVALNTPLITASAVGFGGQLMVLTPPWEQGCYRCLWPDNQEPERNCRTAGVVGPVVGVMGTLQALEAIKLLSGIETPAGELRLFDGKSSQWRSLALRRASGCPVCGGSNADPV

YceC = target: T2, YceC (E. coli K-12, UniProt P0AA39 1-319)
T2 construct: YceC, E. coli K-12
T2 sequence (looked up): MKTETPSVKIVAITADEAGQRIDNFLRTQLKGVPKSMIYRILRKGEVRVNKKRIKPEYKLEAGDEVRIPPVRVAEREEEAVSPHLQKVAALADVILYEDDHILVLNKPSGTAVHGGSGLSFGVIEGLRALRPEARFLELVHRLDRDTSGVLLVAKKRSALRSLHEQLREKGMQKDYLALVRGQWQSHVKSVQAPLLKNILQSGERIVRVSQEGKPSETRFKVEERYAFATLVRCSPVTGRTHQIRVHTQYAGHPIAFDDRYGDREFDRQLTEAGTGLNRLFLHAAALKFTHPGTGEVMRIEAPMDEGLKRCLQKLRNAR

YcaO = target: T3, YcaO (E. coli K-12, UniProt P75838 1-586)
T3 construct: YcaO, E. coli K-12

GlgS = target: T4, GlgS (E. coli K-12, UniProt P26649 1-66)
T4 construct: GlgS, E. coli K-12
T4 sequence (looked up): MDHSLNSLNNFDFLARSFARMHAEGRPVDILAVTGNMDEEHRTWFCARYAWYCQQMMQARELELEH

Adi = target: T5, Adi (E. coli K-12, UniProt P28629 1-755)
T5 construct: Adi, E. coli K-12
T5 sequence (looked up): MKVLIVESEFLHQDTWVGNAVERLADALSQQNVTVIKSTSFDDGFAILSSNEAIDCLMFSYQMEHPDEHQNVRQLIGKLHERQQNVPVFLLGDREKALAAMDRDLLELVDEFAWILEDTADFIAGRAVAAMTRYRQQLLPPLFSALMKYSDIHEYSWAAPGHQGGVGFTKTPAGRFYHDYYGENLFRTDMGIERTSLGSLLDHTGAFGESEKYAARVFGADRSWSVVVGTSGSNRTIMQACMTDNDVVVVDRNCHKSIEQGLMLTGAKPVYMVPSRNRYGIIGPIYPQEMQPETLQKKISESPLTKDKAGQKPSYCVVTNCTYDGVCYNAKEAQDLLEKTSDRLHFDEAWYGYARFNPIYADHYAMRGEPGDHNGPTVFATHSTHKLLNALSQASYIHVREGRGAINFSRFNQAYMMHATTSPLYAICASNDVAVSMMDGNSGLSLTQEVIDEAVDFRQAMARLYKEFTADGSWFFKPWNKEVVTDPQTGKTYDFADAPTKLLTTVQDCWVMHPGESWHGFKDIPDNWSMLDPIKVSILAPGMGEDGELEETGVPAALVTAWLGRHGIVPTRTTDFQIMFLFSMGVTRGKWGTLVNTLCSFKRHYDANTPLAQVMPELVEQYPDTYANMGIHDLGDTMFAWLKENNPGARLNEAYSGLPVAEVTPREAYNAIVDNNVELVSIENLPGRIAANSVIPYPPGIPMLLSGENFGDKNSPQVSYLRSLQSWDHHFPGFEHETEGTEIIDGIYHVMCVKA

YciW = target: T6, YciW (E. coli K-12, UniProt P76035 1-375)
T6 construct: YciW, E. coli K-12
T6 sequence (looked up): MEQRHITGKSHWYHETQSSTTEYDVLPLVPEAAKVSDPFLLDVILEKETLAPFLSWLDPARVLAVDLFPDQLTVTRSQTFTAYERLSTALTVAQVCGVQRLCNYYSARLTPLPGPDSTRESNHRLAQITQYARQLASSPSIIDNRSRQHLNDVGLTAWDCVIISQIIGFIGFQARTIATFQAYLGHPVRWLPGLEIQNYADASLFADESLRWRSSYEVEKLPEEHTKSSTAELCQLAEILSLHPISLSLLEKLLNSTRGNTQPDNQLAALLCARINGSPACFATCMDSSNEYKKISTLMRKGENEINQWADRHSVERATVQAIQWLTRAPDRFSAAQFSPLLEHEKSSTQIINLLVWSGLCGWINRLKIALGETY

Measured: binding result

T3 sequence (P75838 whole entry): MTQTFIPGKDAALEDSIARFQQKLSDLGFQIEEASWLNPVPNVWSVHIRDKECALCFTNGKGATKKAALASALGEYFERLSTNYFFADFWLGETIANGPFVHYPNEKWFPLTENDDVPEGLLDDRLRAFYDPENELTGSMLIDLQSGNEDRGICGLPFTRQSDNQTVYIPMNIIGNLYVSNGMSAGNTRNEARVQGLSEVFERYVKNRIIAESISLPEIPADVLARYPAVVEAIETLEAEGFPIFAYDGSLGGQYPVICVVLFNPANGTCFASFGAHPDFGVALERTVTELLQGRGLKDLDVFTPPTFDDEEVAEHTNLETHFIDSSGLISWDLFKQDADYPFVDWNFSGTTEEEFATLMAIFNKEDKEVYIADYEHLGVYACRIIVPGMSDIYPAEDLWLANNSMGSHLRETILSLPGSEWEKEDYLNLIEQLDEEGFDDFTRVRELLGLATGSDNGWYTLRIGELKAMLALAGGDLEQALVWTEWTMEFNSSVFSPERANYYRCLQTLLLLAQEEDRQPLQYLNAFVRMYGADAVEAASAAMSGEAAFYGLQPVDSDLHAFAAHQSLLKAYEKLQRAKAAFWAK

B1: N-terminal biotinylated Lactoferricin B (peptide, UniProt P24627 36-60, looked up)
peptide: Biotin-FKCRRWQWRMKKLGAPSITCVRRAF
modifications: ends and bridges not checked
notes: lactoferricin B (LfcinB), cationic antimicrobial peptide of 25 amino acids; also called biotinylated LfcinB; biotin-labeled LfcinB; source: bought: Kelowna Inc
binds: ThiF | YceC | YcaO | GlgS | Adi | YciW
